Source: the RNAGym collection of RNA variant scans (doi:10.1073/pnas.2313332121)

B1: TPR t1 (parent)
chain: GACCAAUCUGCCCUCAGAGCUCGAGAACAUCUUCGGAUGCAGAGGAGGCAGGCUUCGGUGGCGCGAUAGCGCCAACGUCCUCAACCUCCAAUGCAUCCCACCACAUGAUGAUGCCUGAAGAGCCUUGGUUUUUUG

Variants of: B1
Experiment: polymerase ribozyme fitness, log enrichment relative to wild type (log ratio); higher = more active; in vitro selection for triplet polymerase activity
Procedure, shortened: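 One round of in vitro selection, in triplicate, was applied to PCR-built, transcribed mutant libraries of each subunit of a heterodimeric triplet polymerase ribozyme. The steps were annealing with a biotinylated primer, partner subunit and triplets, incubation frozen at −7 °C, gel excision of extended constructs, streptavidin-bead capture and RT-PCR. Fitness is the logarithm, base 2, of genotype enrichment over wild-type enrichment from inverse-variance-weighted replicate averages of Illumina-sequenced inputs and outputs, keeping genotypes with ≥10 input reads and ≥1 read per output.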

Variant	polymerase ribozyme fitness (log ratio)
GACCAAUCUGCCCUCAGAGCUCGAGAACAUCUUCGGAUGCCGAGGAGGCAGGCUUCGGUGGCGCGAUAGCGCCAACGUCCUCAACCUCCAAUGCAUCCCACCACAUGAUGAUCCCUGAAGAGCCUUGGUUUUUUG [A41C G113C]	-2.86
GACCAAUCUGCCCUCAGAGCUCGAGAACAUCUUCGGAUGCCGAGGAGGCAGGCUUCGGUCGCGCGAUAGCGCCAACGUCCUCAACCUCCAAUGCAUCCCAGCACAUGAUGAUGCCUGAAGAGCCUGGGUUUCUUG [A41C G60C C101G U126G U132C]	-4.76
GACCAAUCUGCCCUCAGAGCUCGAGAACAUCUUCGGAUGCGGAGGUGGCAGGCUUCGGUGGCGCGAUAGCGCCAACGUCCUCAACCUCCAAUGCAUCCCACCACAUGAUGAUGCCUGAAGAGUCUUGGUUUUUUG [A41G A46U C123U]	-2.51
GACCAAUCUGCCCUCAGAGCUCGAGAACAUCUUCGGAUGCCGAGGAGGCAGGCUUCGGUGGCUCGAUAGCGCCAACCUCCUCAACCUCCAAUGCAUCCCUCCACAUGAUGAUGCCUGAAGAGCCUUGGUUUUUUG [A41C G63U G77C A100U]	-4.24
GACCAAUCUGCCCUCAGAGCUCGAGAACAUCUUCGGAUGCCGAGGAGGCAGGCUUCGGUGUCGCGAUAGCGCCAACGUCCUCAACCUCCAAUCCAUCCCACCACAUGAUGAUGCCUGAAGAGCCUUGGUUUUUUG [A41C G61U G93C]	-1.3
GACCAAUCUGCCCUCAGAGCUCGAGAACAUCUUCGGAUGCGGAGGAGGCAGGCUUCGGUGGCGCGAUAGCGCCAACGUCCUCAACCUCCAAUGCAUCCCACCACAUGAUGAUGCCUGAAGAGCCUUGGUUUUUUG [A41G]	-0.0621
GACCAAUCUGCCCUCAGAGCUCGAGAACAUCUUCGGAUGCCGAGGAGGCAGGCUUCGGUGGCGCGAUAGCGCCAACGUCCUCAACCUCCAAUGCAUCCCACCACAUAAUGAUGCCUGAAGAGCCUUGGUUUUUUG [A41C G107A]	-5.61
GACCAAUCUGCCCUCAGAGCUCGAGAACAUCUUCGGAUGCCGAGGAGGCAGGCUUCGGUGGCGCGAUAGCGCCAACGUCCUCAACCUCCAAUGCAUCCCACCACAUGAUGAUGCCUUAAGAGAGUUGGUUUUUUG [A41C G117U C123A C124G]	-3.97
GACCAAUCUGCCCUCAGAGCUCGAGAACAUCUUCGGAUGCCGAGGAGGCACGCUUCGGUGGCGCGAUAGCGCCAACGUCCUCAACCUCCAAUGCAUCCCACCACAUGAUGAUGCCUGAAGAGCCUUGGUUUUUUG [A41C G51C]	-6.13
GACCAAUCUGCCCUCAGAGCUCGAGAACAUCUUCGGAUGCCGAGGAGGCAGGCUUCGGUGGCCCGAUAGCGCCAACGUCCUCAACCUCCAAUGCAUCCCACCACAUGAUGAUGCCUGAAGAGCCUUGGUUUUUUG [A41C G63C]	-2.4
GACCAAUCUGCCCUCAGAGCUCGAGAACAUCUUCGGAUGCGGAGGAGGCAGGCUUCGGUGGCGCGAUGGCGCCAACGUCCUCAACCUCCAAUGCAUCCCACCACAUGAUGAUGCCUGAAGAGCCUUGGUUUUUUG [A41G A68G]	-3.96
GACCAAUCUGCCCUCAGAGCUCGAGAACAUCUUCGGAUGCCGAGGAGGCAGGCUUCGGUGGCGCGAUAGCGCCAACGUCCUCAACCUCCAAUGCAUCCCACCACAUGAUGAUGCCUGAAGAGCCUUGGUUUUUUU [A41C G135U]	-1.68
GACCAAUCUGCCCUCAGAGCUCGAGAACAUCUUCGGAUGCCGAGGAGGCAAGCUUCGGUGGCGCGAUAGCGCCAACGUCCUCAACCUCCAAUGCAUCCCACCACAUGAUGAUGGCUGAAGAGCCUUGGUUUUUUG [A41C G51A C114G]	-6.23
GACCAAUCUGCCCUCAGAGCUCGAGAACAUCUUCGGAUGCCGAGGAGGCAGGCUUCGGUGGCGCGAUAGCUCCAACGUCCUCAACCUCCAAUGCAUCUCACCACAUGAUGAUGACUGAAGAGCCUUGGUUUUUUG [A41C G71U C98U C114A]	-5.3
GACCAAUCUGCCCUCAGAGCUCGAGAACAUCUUCGGAUGCCGAGGAGGCAGGCUUCGGUGGCCCGAUAGCGCCAACGUCCUCAACCUCCAAUGCAUCCCACCACGUGAUGAUGCCUGAAGAGCCUUGGUUUUUUG [A41C G63C A105G]	-5.05
GACCAAUCUGCCCUCAGAGCUCGAGAACAUCUUCGGAUGCCGAGGAGGCAGGCUUCGGUGGCGCGAUAUCGCCAACGUCCUCAACCUCCAACGCAUCCCACCACAUGAUGAUGCCUGAAGAGCCUUGGUUUUUUG [A41C G69U U92C]	-0.226
GACCAAUCUGCCCUCAGAGCUCGAGAACAUCUUCGGAUGCGGAGGAGGCCGGCUUCGGUGGCGCGAUAGCGCCAACAUCCUCAACCUCCAAUGCAUCCCACCACAUGAUGAUGCCCGAAGAGCCUUGGUUUUUUG [A41G A50C G77A U116C]	-3.42
GACCAAUCUGCCCUCAGAGCUCGAGAACAUCUUCGGAUGCCGAGGAGGCAGGCUUCGGUGGCGCGAUAGCGCCAACCUCCUUAACCUCCAAUGCAUCCCACCACAUGAUGAUGCCUGAAGAGCCUUGGUUUUUUG [A41C G77C C82U]	-1.51
GACCAAUCUGCCCUCAGAGCUCGAGAACAUCUUCGGAUGCCGAGGAGCCAGGCUUCGGUGGCGCGAUAGCGCCAACGGCCUCAACCUCCAAUGCAUCCCACCACAUGAUGGUGCCUGAAGAGCCUUGGUUUUUUG [A41C G48C U78G A111G]	-1.93
GACCAAUCUGCCCUCAGAGCUCGAGAACAUCUUCGGAUGCCGAGGAGGCAGGCUUCGGUGGCCCGAUAGCGCCAACUUCCUCAACCUCCAGUGCAGCCCACCACAUGGUGAGGCCUGAAGAGCCUUGGUUUUUUG [A41C G63C G77U A91G U96G A108G U112G]	-6.24
GACCAAUCUGCCCUCAGAGCUCGAGAACAUCUUCGGAUGCCGAGGAGGCAUGCUUCGGUGGCGCGAUAGCGCCAACGUCCUCAACCUCCAAUGCAUCCCACCACAUGAUGAUGCCUGAAGGGCCUUGGUUUUUUG [A41C G51U A121G]	-3.12
